Source: patent US20090023152A1 (published 2009)

B1: RFXAP (other, human, UniProt O00287 1-272, looked up)
chain: MEAQGVAEGAGPGAASGVPHPAALAPAAAPTLAPASVAAAASQFTLLVMQPCAGQDEAAAPGGSVGAGKPVRYLCEGAGDGEEEAGEDEADLLDTSDPPGGGESAASLEDLEDEETHSGGEGSSGGARRRGSGGGSMSKTCTYEGCSETTSQVAKQRKPWMCKKHRNKMYKDKYKKKKSDQALNCGGTASTGSAGNVKLEESADNILSIVKQRTGSFGDRPARPTLLEQVLNQKRLSLLRSPEVVQFLQKQQQLLNQQVLEQRQQQFPGTSM
notes: also called RFXAP subunit of RFX

What was measured:
[1] = biological target: MHC-II enhanceosome assembled on the DRA promoter fragment (human) (UniProt P48382); assay: promoter pull-down from crude cell extracts, immunoblot
[2] = biological target: T1, RFX5 (human, UniProt P48382 2-616); assay: EMSA supershift of co-translated subunits on X box probe
T1 construct: also called RFX5 subunit of RFX
T1 sequence (looked up): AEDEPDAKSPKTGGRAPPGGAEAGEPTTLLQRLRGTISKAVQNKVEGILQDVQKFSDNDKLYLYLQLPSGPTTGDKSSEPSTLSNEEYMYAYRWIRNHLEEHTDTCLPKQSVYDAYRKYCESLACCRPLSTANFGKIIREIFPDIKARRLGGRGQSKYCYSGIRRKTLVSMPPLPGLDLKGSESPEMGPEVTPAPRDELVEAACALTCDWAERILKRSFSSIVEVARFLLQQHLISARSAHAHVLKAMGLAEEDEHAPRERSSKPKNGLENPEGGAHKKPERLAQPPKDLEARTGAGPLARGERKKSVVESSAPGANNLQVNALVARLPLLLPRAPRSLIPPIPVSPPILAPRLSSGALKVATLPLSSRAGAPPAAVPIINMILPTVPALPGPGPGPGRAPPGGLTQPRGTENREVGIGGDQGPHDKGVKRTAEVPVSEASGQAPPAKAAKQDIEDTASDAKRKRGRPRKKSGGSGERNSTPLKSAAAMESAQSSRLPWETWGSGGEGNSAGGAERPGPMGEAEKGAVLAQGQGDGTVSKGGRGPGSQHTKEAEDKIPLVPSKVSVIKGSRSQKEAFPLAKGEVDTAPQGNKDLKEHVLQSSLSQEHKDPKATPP

[3] = biological target: B1; assay: as above

Row | Molecule | percent of the CIITA recruited [1] [%] | binding result [2] | binding result [3]
1 | CIITA (wild type) (from UniProt P33076 1-1130) | < 1 |  | 
2 | B1 |  | binds | 
3 | FLAG-RFXANK (other, In vitro translated) DYKDDDDKMELTQPAEDLIQTQQTPASELGDPEDPGEEAADGSDTVVLSLFPCTPEPVNPEPDASVSSPQAGSSLKHSTTLTNRQRGNEVSALPATLDSLSIHQLAAQGELDQLKEHLRKGDNLVNKPDERGFTPLIWASAFGEIETVRFLLEWGADPHILAKERESALSLASTGGYTDIVGLLLERDVDINIYDWNGGTPLLYAVRGNHVKCVEALLARGADLTTEADSGYTPMDLAVALGYRKVQQVIENHILKLFQSNLVPADPE |  | binds | binds
